According to US10941182 (Amgen, dated 2021):
Starred links: 1 amine or outer side, 2 acyl side, 3 side chain; linkers in the order of their positions; H or OH if unused. Non-standard residues stand in square brackets, D forms with d. Primed or numbered codes have the meaning given here. *: point of attachment. AC4Abu = α-carboxy-4-aminobutyric acid, O=C(C(CCN[*:1])C(=O)[*:3])[*:2]; dBip = N[C@H](Cc1ccc(-c2ccccc2)cc1)C(=O)O; Oic = O=C(O)[C@@H]1C[C@@H]2CCCC[C@@H]2N1; Phe(4-Cl) = N[C@@H](Cc1ccc(Cl)cc1)C(=O)O; Phe(4-I) = N[C@@H](Cc1ccc(I)cc1)C(=O)O; γGlu = O=C(O)[C@H](CCC(=O)[*:2])N[*:1]; NMeR = CN[C@@H](CCCNC(=N)N)C(=O)O; hArg = N=C(N)NCCCC[C@H](N)C(=O)O; Cha = N[C@@H](CC1CCCCC1)C(=O)O; NMeL = CN[C@@H](CC(C)C)C(=O)O; Nle = CCCC[C@H](N)C(=O)O; Pip′ = not defined here; Hexanoyl = CCCCCC(=O)*; AEEA = NCCOCCOCC(=O)O; Aib = CC(C)(N)C(=O)O; Ahx = NCCCCCC(=O)O

T1: rat APJ receptor (rat, UniProt Q9JHG3 1-377)
T1 sequence (looked up): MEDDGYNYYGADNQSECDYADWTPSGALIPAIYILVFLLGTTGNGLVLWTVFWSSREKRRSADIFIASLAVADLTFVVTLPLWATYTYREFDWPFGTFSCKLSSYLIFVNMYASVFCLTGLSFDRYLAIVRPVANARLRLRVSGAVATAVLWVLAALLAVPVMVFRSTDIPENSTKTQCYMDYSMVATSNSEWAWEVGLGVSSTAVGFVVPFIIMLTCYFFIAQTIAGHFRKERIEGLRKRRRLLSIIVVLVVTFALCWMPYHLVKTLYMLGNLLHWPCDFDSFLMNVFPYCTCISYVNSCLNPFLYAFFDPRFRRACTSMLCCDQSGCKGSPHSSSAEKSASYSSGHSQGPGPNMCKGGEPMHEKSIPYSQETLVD

T2: human APJ receptor (human, UniProt P35414 1-380)
T2 sequence (looked up): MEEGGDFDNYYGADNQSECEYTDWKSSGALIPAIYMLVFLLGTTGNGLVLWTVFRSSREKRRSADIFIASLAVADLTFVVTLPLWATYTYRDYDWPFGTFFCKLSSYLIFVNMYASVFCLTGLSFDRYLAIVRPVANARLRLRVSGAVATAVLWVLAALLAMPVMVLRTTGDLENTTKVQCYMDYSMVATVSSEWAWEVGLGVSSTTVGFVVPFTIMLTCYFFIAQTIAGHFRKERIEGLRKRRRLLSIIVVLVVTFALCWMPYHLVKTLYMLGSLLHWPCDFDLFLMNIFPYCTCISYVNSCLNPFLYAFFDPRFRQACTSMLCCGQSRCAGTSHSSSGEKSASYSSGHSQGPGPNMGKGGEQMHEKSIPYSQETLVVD

B1: SEQ ID NO: 561 (peptide)
peptide: XXXQRPRLSHKGPXPF
modifications: {hexanoyl}[AC4Abu][Aeea][Aeea]Q[NMehArg]P[NMeArg][aMeLeu]SHKGP[Nle]P[4-Cl-F]{COOH}
B2: SEQ ID NO: 286 (peptide)
peptide: Hexanoyl-[γGlu][AEEA][AEEA][hArg][dR]Q[hArg]P[dR][NMeL]SHKG[Oic][Phe(4-I)]P[dBip]-OH
SMILES: CCCCCC(=O)N[C@@H](CCC(=O)NCCOCCOCC(=O)NCCOCCOCC(=O)N[C@@H](CCCCNC(=N)N)C(=O)N[C@H](CCCNC(=N)N)C(=O)N[C@@H](CCC(N)=O)C(=O)N[C@@H](CCCCNC(=N)N)C(=O)N1CCC[C@H]1C(=O)N[C@H](CCCNC(=N)N)C(=O)N(C)[C@@H](CC(C)C)C(=O)N[C@@H](CO)C(=O)N[C@@H](Cc1c[nH]cn1)C(=O)N[C@@H](CCCCN)C(=O)NCC(=O)N1[C@H](C(=O)N[C@@H](Cc2ccc(I)cc2)C(=O)N2CCC[C@H]2C(=O)N[C@H](Cc2ccc(-c3ccccc3)cc2)C(=O)O)C[C@@H]2CCCC[C@@H]21)C(=O)O
B3: SEQ ID NO: 566 (peptide)
peptide: Hexanoyl-[Ahx][AC4Abu][AEEA][AEEA][hArg][dR]Q[hArg]P[dR][NMeL]SHKG[Oic][Phe(4-I)]P[dBip]-OH
SMILES: CCCCCC(=O)NCCCCCC(=O)NCCC(C(=O)O)C(=O)NCCOCCOCC(=O)NCCOCCOCC(=O)N[C@@H](CCCCNC(=N)N)C(=O)N[C@H](CCCNC(=N)N)C(=O)N[C@@H](CCC(N)=O)C(=O)N[C@@H](CCCCNC(=N)N)C(=O)N1CCC[C@H]1C(=O)N[C@H](CCCNC(=N)N)C(=O)N(C)[C@@H](CC(C)C)C(=O)N[C@@H](CO)C(=O)N[C@@H](Cc1c[nH]cn1)C(=O)N[C@@H](CCCCN)C(=O)NCC(=O)N1[C@H](C(=O)N[C@@H](Cc2ccc(I)cc2)C(=O)N2CCC[C@H]2C(=O)N[C@H](Cc2ccc(-c3ccccc3)cc2)C(=O)O)C[C@@H]2CCCC[C@@H]21
B4: SEQ ID NO: 562 (peptide)
peptide: Hexanoyl-[AC4Abu][AEEA][AEEA]QRP[NMeR][Cha]SHKG[Oic][Nle][Aib][Phe(4-Cl)]-OH
SMILES: CCCCCC(=O)NCCC(C(=O)O)C(=O)NCCOCCOCC(=O)NCCOCCOCC(=O)N[C@@H](CCC(N)=O)C(=O)N[C@@H](CCCNC(=N)N)C(=O)N1CCC[C@H]1C(=O)N(C)[C@@H](CCCNC(=N)N)C(=O)N[C@@H](CC1CCCCC1)C(=O)N[C@@H](CO)C(=O)N[C@@H](Cc1c[nH]cn1)C(=O)N[C@@H](CCCCN)C(=O)NCC(=O)N1[C@H](C(=O)N[C@@H](CCCC)C(=O)NC(C)(C)C(=O)N[C@@H](Cc2ccc(Cl)cc2)C(=O)O)C[C@@H]2CCCC[C@@H]21

Target: T1, rat APJ receptor
Assay: cell-based or functional assay

Binder | EC50 Rat APJ Receptor
XXXQRPRLSHKGPXPF ({hexanoyl}[AC4Abu][Aeea][Aeea]QR[aMePro][hArg][aMeLeu]SHKGP[Nle]P[4-Cl-F]{COOH}) [SEQ ID NO: 560] | 0.274 nM
B1 | 5.94 nM
XXXQRPRLSHKGPXPF ({HexDDA}[AC4Abu][Aeea][Aeea]QRP[NMeArg]LSHKGP[Nle]P[4-Cl-F]{COOH}) [SEQ ID NO: 512] | 4.59 nM
XXXQRPRLSHKGPXPF ({Oc}[AC4Abu][Aeea][Aeea]QRP[NMeArg]LSHKGP[Nle]P[4-Cl-F]{COOH}) [SEQ ID NO: 493] | 0.647 nM
Hexanoyl-[AC4Abu][AEEA][AEEA][hArg][dR]Q[hArg]P[dR][NMeL]SHKG[Pip′][Phe(4-I)]P[dBip]-OH [SEQ ID NO: 563] | 12.7 nM
B2 | 3.07 nM
XXXQRPRLSHKGPMPF ({ODDA}[AC4Abu][Aeea][Aeea]QRPRLSHKGPMPF{COOH}) [SEQ ID NO: 290] | 173 nM
B3 | 1.65 nM
B4 | 16.3 nM

Target: T2, human APJ receptor
Assay: cell-based or functional assay

Binder | EC50 Human APJ Receptor
XXXQRPRLSHKGPXPF ({hexanoyl}[AC4Abu][Aeea][Aeea]QR[aMePro][hArg][aMeLeu]SHKGP[Nle]P[4-Cl-F]{COOH}) [SEQ ID NO: 560] | 0.0553 nM
B1 | 1.21 nM
XXXQRPRLSHKGPXPF ({HexDDA}[AC4Abu][Aeea][Aeea]QRP[NMeArg]LSHKGP[Nle]P[4-Cl-F]{COOH}) [SEQ ID NO: 512] | 0.658 nM
XXXQRPRLSHKGPXPF ({Oc}[AC4Abu][Aeea][Aeea]QRP[NMeArg]LSHKGP[Nle]P[4-Cl-F]{COOH}) [SEQ ID NO: 493] | 0.12 nM
Hexanoyl-[AC4Abu][AEEA][AEEA][hArg][dR]Q[hArg]P[dR][NMeL]SHKG[Pip′][Phe(4-I)]P[dBip]-OH [SEQ ID NO: 563] | 4.3 nM
B2 | 1.62 nM
XXXQRPRLSHKGPMPF ({ODDA}[AC4Abu][Aeea][Aeea]QRPRLSHKGPMPF{COOH}) [SEQ ID NO: 290] | 40.1 nM
B3 | 1.13 nM
B4 | 3.85 nM
